The record followed here is patent US7625566.

The target in assay [1] is human monoclonal anti-HIV-1 antibody 2F5 (isotype not stated in the assay). The assay can be described thus: competition ELISA: 500 ng/mL 3H6 preincubated with 31 ng/mL 2F5, then 2F5 binding to coated …. For orientation: An ELISA detects its analyte on a solid surface through an enzyme-linked reagent.
Assay [2] has the same target. Kind of assay: competition ELISA: 50 ng/mL 3H6 preincubated with 31 ng/mL 2F5, then 2F5 binding to coated ….
Assay [3] shares this target. Kind of assay: cell-based or functional assay.
The target in assay [4] is human anti-HIV-1 (gp120 recognizing) antibody 2G12. The assay can be described thus: cell-based or functional assay.

B1: murine monoclonal anti-idiotypic antibody (Ab2) 3H6 (antibody, V domains shown)
VH: GVQLQQSGPELVKTGASVKISCKASGYSFTDYFMHWVKQSHGKSLDWIGYINCYTGATNYSQKFKGKATFTVDTSSNTAYMQFNSLTSEDSAVYYCARTSIGYGSSPPFPYWGQGTLVTVSA
VL: ETTVTQSPASLSMSIGEKVTIRCITSTDIDDDMNWYQQKPGEPPRLLISDGNTLRPGVPSRFSSSGYGTDFVFTIENMLSEDVADYYCLQSDNLPYTFGGGTNLEIK
Turning to B1, in assay [1], the reduction of OD is 83%. In assay [2], this molecule returned a reduction of the OD of 37%. In assay [3], the depletion of 2F5 (10 µg/mL) neutralization of HIV-1 NL4-3 on AA-2 cells, p24 ELISA was determined as 3.9 µg/mL; the reduction of 2F5 (10 µg/mL) neutralization at 3.9 µg/mL 3H6 worked out at 95%; the reduction of the neutralizing capacity of 2F5 (10 µg/mL) at 1.9 µg/mL 3H6 worked out at 5%. Moreover, the reduction of 2G12 (10 µg/mL) neutralization of HIV-1 NL4-3 in assay [4] is > 250 µg/mL.
